Patent US20240325555A1 (LANOVA MEDICINES, published 2024)

Experiments:
cynomolgus LIV-1 = cynomolgus LIV-1 (cynomolgus, UniProt A0A2K5WH46 30-741); assay: FACS, cyno LIV-1 cells
human LIV-1 = biological target: T1, human LIV-1 (human, UniProt Q13433 29-755); assay: FACS, human LIV-1 cells
T1 construct: whole, on cells; also called H-LIV1
T1 sequence (looked up): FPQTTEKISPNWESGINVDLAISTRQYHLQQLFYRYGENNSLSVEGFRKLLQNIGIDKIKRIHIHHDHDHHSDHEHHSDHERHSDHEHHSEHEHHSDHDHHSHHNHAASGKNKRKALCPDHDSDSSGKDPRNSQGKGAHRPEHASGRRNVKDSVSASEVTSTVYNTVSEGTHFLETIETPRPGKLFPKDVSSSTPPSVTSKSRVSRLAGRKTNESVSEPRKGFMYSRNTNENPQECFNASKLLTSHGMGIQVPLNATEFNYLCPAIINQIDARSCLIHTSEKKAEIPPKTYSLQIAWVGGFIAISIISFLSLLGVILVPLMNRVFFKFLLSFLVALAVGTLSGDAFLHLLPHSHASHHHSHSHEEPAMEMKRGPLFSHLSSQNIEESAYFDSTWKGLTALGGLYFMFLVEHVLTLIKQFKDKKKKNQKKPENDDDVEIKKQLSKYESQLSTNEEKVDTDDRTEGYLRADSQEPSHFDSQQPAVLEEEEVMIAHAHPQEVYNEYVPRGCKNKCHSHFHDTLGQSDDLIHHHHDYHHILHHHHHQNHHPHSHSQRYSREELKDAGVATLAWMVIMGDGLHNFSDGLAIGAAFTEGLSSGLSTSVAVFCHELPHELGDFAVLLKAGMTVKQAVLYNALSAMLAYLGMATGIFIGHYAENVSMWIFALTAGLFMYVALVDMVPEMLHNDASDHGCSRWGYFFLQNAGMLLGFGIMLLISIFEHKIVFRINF
Description: In this example, cell based binding of humanized antibodies (hu Abs) on human LIV-1-expressing cells were assessed using flow cytometry.
Cell based binding of hu-Abs on human LIV-1 expressing cells were assessed using flow cytometry. Briefly, the HEK293/H_LIV-1 cells were incubated with hu-Abs (from 100 nM, 6 folds dilution, 8 points). After incubation at 4° C. for 60 minutes, the cells were washed with FACS buffer twice, then stained with fluorescent conjugated secondary antibody at 4° C. for 30 minutes. After that the cells were washed twice and analyzed by flow cytometry.

cynomolgus LIV-1, sequence (A0A2K5WH46 entry or part of it): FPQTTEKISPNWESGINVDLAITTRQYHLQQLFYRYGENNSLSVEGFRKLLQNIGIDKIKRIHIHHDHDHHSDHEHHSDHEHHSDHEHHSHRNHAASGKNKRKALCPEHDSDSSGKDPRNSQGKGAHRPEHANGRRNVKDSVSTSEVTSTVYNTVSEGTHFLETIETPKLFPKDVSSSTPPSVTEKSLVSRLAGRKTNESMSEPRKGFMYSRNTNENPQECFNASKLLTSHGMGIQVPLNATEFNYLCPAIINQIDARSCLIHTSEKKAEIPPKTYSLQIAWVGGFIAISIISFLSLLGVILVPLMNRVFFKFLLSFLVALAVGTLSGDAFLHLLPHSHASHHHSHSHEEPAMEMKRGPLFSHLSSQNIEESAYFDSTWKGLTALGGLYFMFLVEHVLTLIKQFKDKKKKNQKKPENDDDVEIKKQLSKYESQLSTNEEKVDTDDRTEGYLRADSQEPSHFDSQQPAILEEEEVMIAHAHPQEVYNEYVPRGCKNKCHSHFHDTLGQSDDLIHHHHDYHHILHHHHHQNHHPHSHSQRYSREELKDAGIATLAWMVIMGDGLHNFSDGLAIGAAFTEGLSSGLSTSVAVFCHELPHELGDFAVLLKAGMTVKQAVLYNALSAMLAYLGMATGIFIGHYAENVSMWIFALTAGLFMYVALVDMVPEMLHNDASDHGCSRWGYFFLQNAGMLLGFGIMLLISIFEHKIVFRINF

B1: 290F10G10.p1.Z6 (antibody, V domains shown)
VH: EVQLVQSGAEVKKPGASVKVSCKASGYTFTSYWIHWVRQAPGQGLEWMGTIYPGDADTRSTQKFKDRVTVTADKSTSTVYMELSSLRSEDTAVYYCARSLIHDDYDKYYFDYWGQGTTVTVSS
VL: DIQMTQSPSSLSASVGDRVTITCKARQDINKYIAWYQHKPGKGPKLLIHYTSILQPGIPSRFSGSGSGRDYTFTISSLQPEDIATYYCLQYDYFFTFGGGTKVEIK
In the case of B1, the EC50 (cynomolgus LIV-1) is reported as 0.46 nM, the “Top (MFI)” value (cynomolgus LIV-1) is reported as 6890 MFI and the EC50 (human LIV-1) is reported as 0.35 nM. The “Top (MFI)” value (human LIV-1) was 7420 MFI.

B2: 290F10G10.p1.Z8 (antibody, V domains shown)
VH: EVQLVQSGAEVKKPGASVKVSCKASGYTFTSYWIHWVRQAPGQGLEWIGTIYPGDADTRSTQKFKDKATVTADKSTSTVYMELSSLRSEDTAVYYCARSLIHDDYDKYYFDYWGQGTTVTVSS
VL: DIQMTQSPSSLSASVGDRVTITCKARQDINKYIAWYQQKPGKAPKLLIHYTSILQPGIPSRFSGSGSGRDYTFTISSLQPEDIATYYCLQYDYFFTFGGGTKVEIK
B2 was tested, and the EC50 (cynomolgus LIV-1) was 0.36 nM, the “Top (MFI)” value (cynomolgus LIV-1) was 7190 MFI and the EC50 (human LIV-1) was 0.27 nM. The “Top (MFI)” value (human LIV-1) was 7540 MFI.

B3: 290F10G10.p1.Z9 (antibody, V domains shown)
VH: EVQLVQSGAEVKKPGASVKVSCKASGYTFTSYWIHWVRQAPGQGLEWIGTIYPGDADTRSTQKFKDKATVTADKSTSTVYMELSSLRSEDTAVYYCARSLIHDDYDKYYFDYWGQGTTVTVSS
VL: DIQMTQSPSSLSASVGDRVTITCKARQDINKYIAWYQHKPGKGPKLLIHYTSILQPGIPSRFSGSGSGRDYTFTISSLQPEDIATYYCLQYDYFFTFGGGTKVEIK
B3 was tested, and the EC50 (cynomolgus LIV-1) was 0.68 nM, the “Top (MFI)” value (cynomolgus LIV-1) was 7630 MFI and the EC50 (human LIV-1) was 0.51 nM. For the same binder, the “Top (MFI)” value (human LIV-1) was 7940 MFI.

B4: 290F10G10.p1.Z12 (antibody, V domains shown)
VH: EVQLVQSGAEVKKPGASVKVSCKASGYTFTSYWIHWVRQAPGQGLEWMGTIYPGDADTRSTQKFKDRVTVTADKSTSTVYMELSSLRSEDTAVYYCTRSLIHDDYDKYYFDYWGQGTTVTVSS
VL: DIQMTQSPSSLSASVGDRVTITCKARQDINKYIAWYQHKPGKGPKLLIHYTSILQPGIPSRFSGSGSGRDYTFTISSLQPEDIATYYCLQYDYFFTFGGGTKVEIK
For B4, the EC50 (cynomolgus LIV-1) was 0.38 nM, the “Top (MFI)” value (cynomolgus LIV-1) was 7510 MFI and the EC50 (human LIV-1) was 0.26 nM. For the same binder, the “Top (MFI)” value (human LIV-1) was 7920 MFI.

B5: 290F10G10.p1.Z10 (antibody, V domains shown)
VH: EVQLVQSGAEVKKPGASVKVSCKASGYTFTSYWIHWVRQAPGQGLEWMGTIYPGDADTRSTQKFKDRVTVTADKSTSTVYMELSSLRSEDTAVYYCTRSLIHDDYDKYYFDYWGQGTTVTVSS
VL: DIQMTQSPSSLSASVGDRVTITCKARQDINKYIAWYQQKPGKAPKLLIYYTSILQPGVPSRFSGSGSGRDYTFTISSLQPEDIATYYCLQYDYFFTFGGGTKVEIK
B5 was tested, and the EC50 (cynomolgus LIV-1) was 0.69 nM, the “Top (MFI)” value (cynomolgus LIV-1) was 6740 MFI and the EC50 (human LIV-1) was 0.49 nM. The “Top (MFI)” value (human LIV-1) was 7290 MFI.

B6: 290F10G10.p1.Z11 (antibody, V domains shown)
VH: EVQLVQSGAEVKKPGASVKVSCKASGYTFTSYWIHWVRQAPGQGLEWMGTIYPGDADTRSTQKFKDRVTVTADKSTSTVYMELSSLRSEDTAVYYCTRSLIHDDYDKYYFDYWGQGTTVTVSS
VL: DIQMTQSPSSLSASVGDRVTITCKARQDINKYIAWYQQKPGKAPKLLIHYTSILQPGIPSRFSGSGSGRDYTFTISSLQPEDIATYYCLQYDYFFTFGGGTKVEIK
B6 was tested, and the EC50 (cynomolgus LIV-1) was 0.32 nM, the “Top (MFI)” value (cynomolgus LIV-1) was 7410 MFI and the EC50 (human LIV-1) was 0.25 nM. The “Top (MFI)” value (human LIV-1) was 7820 MFI.

B7: 290F10G10.p1.Z7 (antibody, V domains shown)
VH: EVQLVQSGAEVKKPGASVKVSCKASGYTFTSYWIHWVRQAPGQGLEWIGTIYPGDADTRSTQKFKDKATVTADKSTSTVYMELSSLRSEDTAVYYCARSLIHDDYDKYYFDYWGQGTTVTVSS
VL: DIQMTQSPSSLSASVGDRVTITCKARQDINKYIAWYQQKPGKAPKLLIYYTSILQPGVPSRFSGSGSGRDYTFTISSLQPEDIATYYCLQYDYFFTFGGGTKVEIK
B7 was tested, and the EC50 (cynomolgus LIV-1) was 0.37 nM, the “Top (MFI)” value (cynomolgus LIV-1) was 7150 MFI and the EC50 (human LIV-1) was 0.28 nM. The “Top (MFI)” value (human LIV-1) was 7680 MFI.
